Experiment: yeast display, Sf9 membrane polyspecificity reagent, FACS + sequencing; frameworks hold sequencing errors
Procedure, shortened: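 Nanobodies came from a synthetic yeast display library in Saccharomyces cerevisiae BJ5465, induced with galactose for 36–48 hours and stained for 1 hour at 4 °C with 10% biotinylated, detergent-solubilized Sf9 membrane reagent. Cells were enriched on streptavidin microbeads and then FACS-sorted, with low and high (top ~1%) gates set on anti-HA fluorescence for expression and streptavidin fluorescence for reagent binding. Each polyreactivity label reflects the gate a clone came from. Genes were amplified by colony PCR, sequenced by MiSeq 2 × 250 and filtered by CDR length.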

Sequence	polyreactivity (PSR sort gate)
QVQLVESGGGLVQAGGSLRLSCAASGRTLFPNVMGWYRQAPRQERELFAAITTIGGSTYYADSVKGRITISRDNAKNTVFLQMNSLKPEDTEVYYCNARYRGRGLKFGYWGQGTQVTVSS	high polyreactivity
QVQLVETGGGLVQAGGSLRLSCAASGRTYAFYAMGWYRQAPGKERELVASISSSGDRPYYADSVKGRFTISRDNAKNTVFLQLNSLKPEDTAVYYCAARWRYTYYYWGQGTQVTVSS	high polyreactivity
QVQLVESGGGLVQAGGSLRLSCAAYGSNLTWNDMGWYRQAPGKERELVAAIDVNDGSTYYADSVKGRFTISRDNAKNTVYLQMNRLKPEDTAVYYCAEPTDYTWLDSTLADDYWGQGTQVTVSS	low polyreactivity
QVQLVESGGGLVQAGGSLRLSCAASGFILGVYAMGWYRQAPGKERELVAAITFSGASTYYADSVKGRFTISRDNAKNTVYLQMNSLKPEDTAVYYCNKTSAYYRYEYWGQGTQVTVSS	low polyreactivity
QVQLVESGGGLVQAGGSLRLSCAASGRIFRDYAMGWYRQAPGKERELVAAISLSGGSTYYADSVKGRFTISRDIAKNTVYLQVNSLKPEDTAVYYCAAKYYYGGNGYWGQGTQVNVSS	low polyreactivity
QVQLVESGGGLVQAGGSLRLSCAASGSIFGGYAMGWYRQAPGKERELVAAISWSSSSTYYADSVKGRFTISRDNAKNTVYLQMNSLKPEDTAVYYCNAKPFYDYTEYDYWGQGTQVTVSS	low polyreactivity
QVQLVESGGGLVQAGGSLRLSCAASGSTFRYNAMGWYRQAPGKEREFVAAITTSGVRTYYADSVKGRFTISRDNAKNTVYLQMTSLKPEDSAVYYCAARANYIFYGMDYWGQGTLVTVSS	high polyreactivity
QVQLVESGGGLVQAGGSLRLSCAASGFTSSYYAMGWYRQAPGKERELVAAISSSGGSTYYADSVKGRFTISRDNAKNTVYLQMNSLKPEDTAVYYCAAARRERAGRQYDYWGQGTQVTVSS	low polyreactivity
QVQLVESGGGLVQAGGSLRLSCAASGYTFYWNVMGWYRQAPGKERELVAVIDWSGGSTHYADSVKGRFTISRDNAKNTVYLQMNSLKPEDTAVYYCAAESVYTWYYQDDDDYWGQGTQVTVSS	low polyreactivity
QVQLVESGGGLVQGGGSLRLSCAASGSIFSDNAMGWYRQAPGKERELVATITFSGASTYYADSVKGRFTISRDNAKNTVYLKMNSLKPEDTAVYYCAAEEPDVIAQPGFDYWGQGTQVTVSS	low polyreactivity
QVQLVESGGGLVQAGGSLRLSCADSGIIFAYYDMGWYRQAPGKERELVASISSTGGSTYYADSVKGRFTISSDNAKNTVYLQMNSLKPEDTAVYYCAVDGLPPKDALHLYYYWGQGTQVTVSS	low polyreactivity
QVQLVESGGGLVQAGGSLRLSCAASGFTFQVNTMGWYRQAPGKERELVAAISWSGGSTYYADSVKGRFTISRDNAKNTVYLQMNSLKPEDTAVYYCNAVPVSYRGGYWGQGTQVTVSS	low polyreactivity
QVQLVESGGGLVQAGGSLRLSCAASGITFRYYTMGWYRQAPGKERELVAVISWSGGSTYYADSVKGRFTISRDNGKNTVYLQMNSLKPEDTAVYYCAAVRRISRYDYWGQGTQVTVSS	high polyreactivity
QVQLLESGGGLVQAGGSLRLSCASSGYINSYYTMGWYRHATGKERVLVASIRWAGGRTYYADSVKGRFTFSRDNAKITVYLQMNSLKPEDTAVYYCNVKSSRFLDVGRMEYWGQGTQVTVSS	high polyreactivity
QVQLVESGGGLVQEGGSLRLSCAASGRTFEQNAMGWYRQAPGKERELVASITSVGSTDYADSVKGRFTISRDNAKNTVYLQMNSLKTEDTAVYYCAKTLGSQNYDFDYWGQGTQVTVSS	low polyreactivity
QVQLVESGGGLVQAGGSLRLSCAASGSTFWPYAMGWYRQAPGKERELVAAINYSSGSTYYADSVKGRFTISRDNAKNTVYLQMNSLKPEDNAVYYCAKGWYAGYPYDYWGQGTQVTVSS	low polyreactivity
QVQLVESGGGLVQAGGSLRLSCAASVKIFAWYALGWYRKAPGKEMELVADISSRGGSTYYADSVKGRFTISRDNAKNTVYLQMNSLKPEDTAVYYCAAVWYWTQDYDYWGQGTQVTGSS	low polyreactivity
QVQLVESGGGLVLAGGSLRLSCAASGRIFGTNAMGWYRQAPGKERELVAAISLSGGRTYADSVKGRFTISRDNAKNTVYLQMNSLKPEDTAVYYCNADSAGITRSRSELDYWGQGTQVTVSS	low polyreactivity
QVQLVESGGGLVQAGGSLRLSCAASGSTFTLYAMGWYRQAPGKERELVATIDWSGGSTYYADSVKGRFTISRDNAKNTVYLQMNSLKPEDTAVYYCAADSYVVFYRGYTFIAVHSYEYWGQGTQVTVSS	low polyreactivity
QVQLVESGGGLVQAGGSLRLSCAASGSTFLRNAMGWYRQAPGKERELVATISRTGGTTYYADSVKGRFTISRDNAKTTVYLQMNSLKPEDTAVYYCAAYSKYGQHYDYWGQGTQVTVSS	high polyreactivity
QVQLVESGGGLVQAGGSLRLSCAASGYIFRSYAMGWYRQAPGKERELVATISWIGGGTSYADSVKGRFTISRDNAKNTVYLHMNSLIPVDTAVYYCAAGPWAYGRRHAYYSRSFDYWGQGTQVTVSS	high polyreactivity
QVQLVESGGGLVQAGGSLRLSCAASGLTFYVYTMGWYRQAPGKERELVAVISSGDSTYYADSVKGRFTISRDNAKNTVYLQMNSLKPEDTAVYYCAAGTHYRIVRYGLYDYWGQGTQVTVSS	low polyreactivity

Sequence	polyreactivity (PSR sort gate)
QVQLVESGGGLVQAGGSLRLSSPASGSTYVVYAMGWYRPAPGKERELVADITRSGGSTYYADSVKGRFTISRDNAKNTVYLQMNSLKPEDSAVYYCAAVRRNGPYKYYYWGQGTQVTVSS	high polyreactivity
QVQLVESGGGLVQAGGSLRLSCAASGRIFSWYAMGWYRQAPGKEREMVARITTRGGNTYYADSVKGRFTISRDNAKNTVFLQMNSLKPEDTAVYYCAARHPYPIYDYWGQGTQVTVSS	low polyreactivity
QVQLVESGGGLVQAGGSLRLSCAAYGSIFRSYAMGWYRQAPGKERELVAAISSRYGSTYYADSVKGRFTISRDNAKNTVYLQMNSLKPEDTAVYYCGSQHRHSYGYWGQGTQVTVSS	high polyreactivity
QVQLVESGGGLVQAGGRLRLSCAASGLIFVWYAMGWYRQAPGKERELVAAISTSGGSTYYADSVKGRFTISRDNAKNTVYLQMNSLKPEDTAVYYCAAARRWWPQGYYWGQGTQVTVSS	high polyreactivity
QDQLVESAGGLVQAGGSLRLSCAASASIFVSYAMGWYRQAPGKERELVAAITRSGGSTYYSDSVKGRFTISRDNAKYTVYLQMNSLKPDDTAVYYCAARSYLGAYRRFYWGQGTQVTVSS	high polyreactivity
QVQHVESGRGLVQAGGSLRLSCAASGGTFNRYAMGWYRQAPGKERELVAAITSSGGSTYYADSVKGRFTISRDNAMNTVYLHMNSLNPEDTAVYYCNAPGFRRLWGLGYDYWGQGTQVTVSS	high polyreactivity
QVQLVESGGGLVQAGGSLRLSCAASGRTSVVNAMGWYRQAPGKERELVAAITSGGSTHYADSVKGRFTISRDNAKNTVYLPMNSLKPEDTAVYYCNARDRRRTNLLDYWGQGTQVTVSS	low polyreactivity
QVQLVESGGGLVQAGGSLRLSCAASGSTFPKYAMGWYRQAPGKERELVAAISWYGGRTYYADSVKGRFTISRDNAKHTVYLQMNSLKPEDTAVYYCAASIPGTRSDGYWGQGTQVTVSS	low polyreactivity
QVQLEESGGGLVQAGGSLRLSCAASGRIFYDYAMGWYRKAPGKERELVATISWSAGIKYYADSVKGRFTISRDNAKNTVYLQMNSLKPEDTAVYYCAKVGRYTYSGQYDYWGQGTQVTVSS	high polyreactivity
QVQLVESGGGLVQAGGSLRLSCAASGGTLYRYAMGWYRQAPGKERELVAGISSSGGRTYYADSVKGRFTISRDNAKNTVYLQMNSLKPEDTAVYYCAKYWVSSYDYWGQGNQVTVSS	high polyreactivity
QVQLVESGGGLVQAGGSLRLSCAASGRTFSRYAIGWYRQAPGKERELVASITSRGGSTYYADSVKGRFTISRDNAKNTVYLQMNSLKPEDTAVYYCNVKPTYSPRYWEDYWGQGTQVTVSS	high polyreactivity
QVQLVESGGGLVQAGGSLRLSCAASGSIFVNKGMGWYRQAPGKERELVAAIRLSTGSTYYADSVKGRFTISRDNAKNTVYLKINSLKREDTAVDDCATRYYIWGNWGQGTQVTGSS	high polyreactivity
QVQLVESGGGLVQAGGSLRLSCAASGRIFVYNVMGWYRQAPGKERELVAAISWGTGSTYADSVKGRFTISRDNAKNTVYLQMNSLKPEDTAVYYCAAPSPRSRAYTYRGDYWGQGTQVTVSS	low polyreactivity
QVQLVESGGGLVQAGGSLRLSCADSGFIFSHNVMGWYRQAPGKERELVAAISASGGSTYYADSVKGRFTISRDNAKNTVYLQMNSLKPEDTAVYYCAKVTWGTVWYRSPSEYDYWGQGTQVTVSS	low polyreactivity
QVQLVESGAGLVQAGGSLRLSCAASGRIFDNYVMGWYRQAPGKERELVAAISSGGGTYYADSVKGRFTISRDNAKNTVYLQMNSLKPEDTAVYYCAKRRVYDRSFGRYDYWGQGTKVTVSS	low polyreactivity
QVQLVESGGGLVQAGGSLRLSCAASGRTFRIYARGWSRQAPGKERELDAAITKRGGITYYADSVKGRFTISRDNAQNTVYLQMNSLKPEDTAVYYCAKAWKSWSRISKSTFYWTSGDYWGQGTQVTVSS	high polyreactivity
QVQLVESGGGLVQAGGSLRLSCAASGSTIVGYAMGWYRQAPGKERELVAAISRTGASTYYADSVKGRFTISRDNAKNTVYLQMISLKPEDTAVYYCAAGREYWGVTREYWGQGTQVTVSS	high polyreactivity
QVQLVESGGGLVQAGGSLRLSCAASGSTFEYNAMGWYRQAPGKERELVASSTNYADSGKGRFTISRDNAKNTVYLQMNSLKPEDTAVYYCAREQGVNRNHDYWGQGTQVTVSS	low polyreactivity
QVQLVESGGGLVQAGGSLRLSCAASGRIFSDYAMGWYIQAPGKERELVAAISWGGGRTYYADSVKGRFTISRDNAKNTVYLQMNSLKPEDTAVYYCNRGTVNSWARGYWGQGTQVTVSS	high polyreactivity
QVQLVESGGGLGQAGGSLRLSCAASGSTFYLNAMGWYRQATGKERELVAAINSGDSTNYADSVKGRFTISRDNAKNTVYLQMNSLKPEDTAVYYCARDRFPSEGDYWGQGTQVTVSS	low polyreactivity
QVQLVESGGGLVQAGGSLRLICAASGFIFPQNAMGWYRQAPGKERELLAAISKRGGSTYYADSVKGRFTISRDYAKNTVYLQMNSLKPEDTAVYYCAAGYRTRRGLGYYYWGQGTQVTVSS	high polyreactivity

Source: the nanobody polyreactivity screen of Harvey et al. (2022)
